Earlier results on three substances are cited in patent US20060234299A1, “Protein scaffolds and uses thereof” (Avidia Research Institute, priority 2004, published 2006).

The conditions of this data set: commercial drugs.
For the substance Enbrel, the “Human T½” value was 103 h. For Remicade: TNFa Antibody, the “Human T½” value is 216 h. As to Rituxan: CD20 Antibody, the “Human T½” value was 78 h.
